Measured values published in US20250177546A1 (SANYOU BIOPHARMACEUTICALS, published 2025).
Where a chain is given by its changes, count along the chain named.

B1: B31-H3L3 (antibody, human IgG1, kappa, V domains shown)
VH: EVQLVESGGGLVQPGGSLRLSCAASGFTFSRYAMSWVRQAPGKGLEWVASISRGGSTYYADSVKGRFTISRDNSKNTLYLQMNSLRAEDTAVYYCASYFGNYDAMDYWGQGTTVTVSS
VL: DIQMTQSPSSLSASVGDRVTITCRASQDINNYVSWFQQKPGKAPKSLIYRANRLVSGVPSRFSGSGSGTDFTFTISSLQPEDFATYYCLQFDEFPYTFGGGTKLEIKR
B2: B31-H3L2 (antibody, human IgG1, kappa, V domains shown)
VH: B1 VH
VL: B1 VL with R24K, S56D, F71Y
B3: B31-H3L4 (antibody, human IgG1, kappa, V domains shown)
VH: B1 VH
VL: B1 VL with V33L, V55Q, F73L
B4: B62-H3L3 (antibody, human IgG1, kappa)
heavy: not shown
light: DIQMTQSPSSLSASVGDRVTITCVTSIDIDDDVNWYQQKPGKAPKLLISAGNTLRPGVPSRFSGSGSGTDFTFTISSLQPEDIATYYCLQSDNLPYTFGGGTKLEIKRTVAAPSVFIFPPSDEQLKSGTASVVCLLNNFYPREAKVQWKVDNALQSGNSQESVTEQDSKDSTYSLSSTLTLSKADYEKHKVYACEVTHQGLSSPVTKSFNRGEC
B5: B62-H3L3-MMAE (antibody, human IgG1, kappa)
heavy: not shown
light: B4 light
modifications: MC-VC-PAB-MMAE on cysteine sulfhydryl groups of reduced interchain disulfides; average DAR 3.5 over the whole antibody
notes: conjugated positions not resolved; also called B62-H3L3-MC-VC-PAB-MMAE
B6: B31-H3L3-MMAE (antibody, human IgG1, kappa, V domains shown)
VH: B1 VH
VL: B1 VL
modifications: MC-VC-PAB-MMAE on cysteine sulfhydryl groups of reduced interchain disulfides; average DAR 3.5 over the whole antibody
notes: conjugated positions not resolved; also called B31-H3L3-MC-VC-PAB-MMAE; B31-MMAE
B7: B31-H4L2 (antibody, human IgG1, kappa, V domains shown)
VH: B1 VH with A49S, S50A
VL: B1 VL with R24K, S56D, F71Y
B8: B31-H4L3 (antibody, human IgG1, kappa, V domains shown)
VH: B1 VH with A49S, S50A
VL: B1 VL
B9: B31-H4L4 (antibody, human IgG1, kappa, V domains shown)
VH: B1 VH with A49S, S50A
VL: B1 VL with V33L, V55Q, F73L
B10: B31-H1L1 (antibody, human IgG1, kappa, V domains shown)
VH: B1 VH with A40T, G44R, A60P, S74A, N83S, V92M
VL: B1 VL with R24K, S46T, S56D, T69Q, F71Y
notes: also called B31-HIL1
B11: B31-H2L2 (antibody, human IgG1, kappa, V domains shown)
VH: B1 VH with S74A, N83S
VL: B1 VL with R24K, S56D, F71Y
B12: B31-H2L3 (antibody, human IgG1, kappa, V domains shown)
VH: B1 VH with S74A, N83S
VL: B1 VL

biological target: T1, huROR1-His (human ROR1 ECD AA30-406 with C-terminal His tag, made in house) (human, UniProt Q01973 30-406); assay: ELISA, huROR1-His coated plate, goat anti-human Fc-HRP, OD450
T1 construct: range 30-406; Expressed in HEK293; also called antigen protein huROR1-His; not shown: C-terminal His tag
T1 sequence (Q01973 30-406 limits assumed): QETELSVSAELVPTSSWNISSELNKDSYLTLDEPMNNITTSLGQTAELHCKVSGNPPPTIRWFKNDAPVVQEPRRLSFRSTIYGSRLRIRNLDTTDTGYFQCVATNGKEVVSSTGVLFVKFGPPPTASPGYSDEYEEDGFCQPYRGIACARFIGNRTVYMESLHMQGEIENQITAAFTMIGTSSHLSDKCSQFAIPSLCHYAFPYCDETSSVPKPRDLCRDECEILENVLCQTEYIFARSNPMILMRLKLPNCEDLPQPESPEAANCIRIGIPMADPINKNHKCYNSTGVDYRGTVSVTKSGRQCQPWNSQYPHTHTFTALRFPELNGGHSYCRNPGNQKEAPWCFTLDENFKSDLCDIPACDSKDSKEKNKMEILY

B1 and B2 are within 1.5-fold of each other in EC50: 4.6 ng/mL for the first, 3.23 ng/mL for the second.

Work on B3 yielded an EC50 of 5.23 ng/mL.

biological target: T1, huROR1-His (human ROR1 ECD AA30-406 …); assay: as above; remark: another data set of the same source

In the case of B4, the EC50 is reported as 7.21 ng/mL.

biological target: T2, human ROR1 on cells (full-length human ROR1 on huROR1-HEK293 cells; human ROR1 on A549 and HT-29 tumor cells) (human, UniProt Q01973 30-937); assay: flow cytometry (FACS) on HT29 (HT-29) tumor cells, anti-human IgG-Fc secondary antibody, MFI
T2 construct: whole, on cells; also called hROR1-HEK293T; A549 tumor cells
T2 sequence (Q01973 30-937): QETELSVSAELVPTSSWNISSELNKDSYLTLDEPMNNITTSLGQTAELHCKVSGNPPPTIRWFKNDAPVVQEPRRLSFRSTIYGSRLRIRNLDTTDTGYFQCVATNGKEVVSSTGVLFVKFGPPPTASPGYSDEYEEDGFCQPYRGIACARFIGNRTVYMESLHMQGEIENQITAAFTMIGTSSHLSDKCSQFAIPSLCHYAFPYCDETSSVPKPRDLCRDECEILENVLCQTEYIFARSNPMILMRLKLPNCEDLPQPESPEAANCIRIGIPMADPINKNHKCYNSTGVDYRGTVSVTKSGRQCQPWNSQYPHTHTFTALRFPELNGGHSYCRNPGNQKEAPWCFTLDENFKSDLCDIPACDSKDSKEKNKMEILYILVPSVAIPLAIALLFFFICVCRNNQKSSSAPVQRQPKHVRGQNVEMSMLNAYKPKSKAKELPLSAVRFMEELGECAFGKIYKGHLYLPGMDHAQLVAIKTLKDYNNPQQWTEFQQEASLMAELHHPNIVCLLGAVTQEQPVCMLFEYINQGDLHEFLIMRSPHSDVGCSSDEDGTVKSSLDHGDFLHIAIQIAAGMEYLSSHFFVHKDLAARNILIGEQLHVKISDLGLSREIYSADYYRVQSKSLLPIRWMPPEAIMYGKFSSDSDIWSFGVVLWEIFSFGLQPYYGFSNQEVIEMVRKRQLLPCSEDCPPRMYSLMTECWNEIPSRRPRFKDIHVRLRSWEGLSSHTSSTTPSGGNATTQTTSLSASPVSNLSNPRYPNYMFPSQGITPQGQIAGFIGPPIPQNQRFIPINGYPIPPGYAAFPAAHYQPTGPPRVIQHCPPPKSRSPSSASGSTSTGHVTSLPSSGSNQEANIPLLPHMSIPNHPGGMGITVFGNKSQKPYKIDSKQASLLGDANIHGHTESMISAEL
Procedure: (§1) The specific method was as follows: A549 cells or HT-29 cells in the logarithmic growth phase were prepared to a single-cell suspension, the density was adjusted to 1×10⁶ cells/mL, 100 µL/well was added to a 96-well round-bottom plate, then centrifuged at 4° C., 300 g, and the supernatant was removed. […] After the incubation, the cell mixture was washed three times and then 100 μL of 1:300 diluted secondary antibody Goat F(ab′)₂ Anti-Human IgG-Fc (abcam, ab98596) was added. The mixture was incubated at 4° C. in the dark for 30 min. After washing three times, the cells were detected by flow cytometry (Beckman, CytoFLEX AOO-1-1102).

B4 and B5 are the same in “EC50 (read off the curve)” value: roughly 20 ng/mL for the first, roughly 20 ng/mL for the second.

B6 and B1 are the same in “EC50 (read off the curve)” value: roughly 20 ng/mL for the first, roughly 20 ng/mL for the second.

biological target: T1, huROR1-His (human ROR1 ECD AA30-406 …); assay: ELISA, huROR1-His coated plate, goat anti-human Fc-HRP, OD450; remark: another data set of the same source

B7 and B8 are within 1.5-fold of each other in EC50: 8.12 ng/mL for the first, 5.74 ng/mL for the second.

B9 gave an EC50 of 17.1 ng/mL.

biological target: T2, human ROR1 on cells (full-length human …); assay: flow cytometry (FACS) on A549 tumor cells, anti-human IgG-Fc secondary antibody, MFI
Procedure: as §1

First: B4
Second: B5
The “EC50 (read off the curve)” value of the first is 2-fold lower: roughly 10 ng/mL for the first, roughly 20 ng/mL for the second.

B6 and B1 are the same in “EC50 (read off the curve)” value: roughly 20 ng/mL for the first, roughly 20 ng/mL for the second.

biological target: T1, huROR1-His (human ROR1 ECD AA30-406 …); assay: ELISA, huROR1-His coated plate, goat anti-human Fc-HRP, OD450; remark: another data set of the same source

B10 and B11 are within 1.5-fold of each other in EC50: 3.24 ng/mL for the first, 4.57 ng/mL for the second.

With B12 the EC50 was 4.29 ng/mL.
